T1: recombinant human SAS1B antigen (Homo sapiens, UniProt Q6HA08)
T1 sequence (Q6HA08 24-431): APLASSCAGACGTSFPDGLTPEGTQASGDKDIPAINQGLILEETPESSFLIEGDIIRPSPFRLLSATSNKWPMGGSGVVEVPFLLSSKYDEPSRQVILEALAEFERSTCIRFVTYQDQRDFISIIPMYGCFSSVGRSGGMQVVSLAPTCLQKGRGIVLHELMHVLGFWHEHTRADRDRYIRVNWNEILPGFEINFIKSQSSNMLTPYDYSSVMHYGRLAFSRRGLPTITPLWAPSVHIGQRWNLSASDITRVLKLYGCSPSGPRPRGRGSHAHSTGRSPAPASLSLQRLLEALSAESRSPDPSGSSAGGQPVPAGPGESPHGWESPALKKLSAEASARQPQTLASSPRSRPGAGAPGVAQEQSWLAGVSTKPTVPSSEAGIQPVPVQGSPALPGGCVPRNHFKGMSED

T2: mouse SAS1B (Mus musculus, UniProt Q6HA09)
T2 sequence (Q6HA09 24-435): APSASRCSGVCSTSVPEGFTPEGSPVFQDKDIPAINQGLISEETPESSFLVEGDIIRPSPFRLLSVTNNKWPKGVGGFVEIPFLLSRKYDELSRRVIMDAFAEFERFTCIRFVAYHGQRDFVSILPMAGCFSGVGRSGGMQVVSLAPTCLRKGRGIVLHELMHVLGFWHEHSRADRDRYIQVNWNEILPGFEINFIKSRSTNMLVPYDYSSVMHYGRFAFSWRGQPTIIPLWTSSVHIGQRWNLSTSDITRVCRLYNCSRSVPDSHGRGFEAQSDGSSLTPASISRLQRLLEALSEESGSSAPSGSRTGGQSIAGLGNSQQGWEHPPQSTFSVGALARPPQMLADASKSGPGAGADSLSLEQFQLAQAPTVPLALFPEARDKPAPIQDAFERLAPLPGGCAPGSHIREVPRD

B1: SB2: mouse anti-human SAS1B monoclonal antibody, IgG2b; VH SEQ ID NO:14, VL SEQ ID NO:15 (antibody, listed as Mus musculus, V domains shown)
VH: EVQLQQSGPELVKPGSSVKISCKASGYTFTDYNMVWVKQSHGKSLEWIGAVNPNNGGTSYNQKFKGKATLTVDKSSSTAYMELRSLTSEDSAVYYCVPNWDWFAYWGQGTLVTVSA
VL: DVLMTQTPLSLPVSLGDQASISCRSSQSLVHSNGNTYLEWYLQKPGQSPNLLIYKVSNRFSGVPDRFSGSGSGTDFTLKISRVEAEDLGVYYCFQGSHVPFTFGSGTKLEIK
B2: SB5: mouse anti-human SAS1B monoclonal antibody, IgG2b; VH SEQ ID NO:16, VL SEQ ID NO:18 (antibody, listed as Mus musculus, V domains shown)
VH: EVQLQQSGPELVKPGSSVKISCKPSGYTFTDYNMVWMKQSHGKSLEWIGAINPNNGGTTYNQKFKGKATLTVDKSSSTAYMELRSLTSEDSAVYYCAPNWDWFAYWGQGTLVTVSA
VL: DVLMTQIPLSLPVSLGDQASISCRSSQSILHSNGNTYLEWYLQKPGQSPKLLIYKVSNRFSGVPDRFSGSGSGTDFTLKISRVEAEDLGVYYCFQGSHVPFTFGSGTKLEIK
B3: SB4: mouse anti-human SAS1B monoclonal antibody, IgG2a; VH SEQ ID NO:16, VL SEQ ID NO:17 (antibody, listed as Mus musculus, V domains shown)
VH: EVQLQQSGPELVKPGSSVKISCKPSGYTFTDYNMVWMKQSHGKSLEWIGAINPNNGGTTYNQKFKGKATLTVDKSSSTAYMELRSLTSEDSAVYYCAPNWDWFAYWGQGTLVTVSA
VL: DVLMTQTPLSLPVSLGDQASISCRSSQSILHSNGNTYLEWYLQKPGQSPKLLIYKVSNRFSGVPDRFSGSGSGTDFTLKISRVEAEDLGVYYCFQGSHVPFTFGSGTKLEIK
B4: SB1: mouse anti-SAS1B monoclonal antibody, IgG2a; VH SEQ ID NO:12, VL SEQ ID NO:13 (antibody, listed as Mus musculus, V domains shown)
VH: EVQLQQSGPELVKPGSSVKISCKASGYTFTDYNMDWVKQSHGKSLEWIGAINPNNGGTSYNQKFKGKATLTVDKSSSTAYMELRSLTSEDSAVYYCATNEYWGQGTTLTVSS
VL: NIVMTQSPKSMSMSVGERVTLSCKASENVGTYVSWYQQKPEQSPKLLIYGASNRYTGVPDRFTGSGSATDFTLTISSVQAEDLADYHCGQSYSYPWTFGGGTKLEIK

Columns and labels:
[1] = tested on: uterine cancer cell line (MMMT539); assay: Morphology of uterine cancer cells after 93 h of anti-SAS1B antibody drug treatment; assay type: cell-based, human; settings: 0.1 nM mAb with 15 nM Fab-DMDM
Method: The morphology of uterine cancer cell line (SNU539) and uterine cancer cell line (MMMT539) after 93 h of anti-SAS1B antibody drug treatment were examined.

[2] = tested on: human uterine cancer cells (MMMT539); assay: Antibody drug conjugate cytotoxicity (ADC) assay, MMMT539; assay type: cell-based; settings: 0.1 nM mAb, Fab-DMDM constant at 15 nM, ~90 h
Method: The cytotoxic effect of anti-human SAS1B mAbs SB2 and SB5 on human uterine cancer cells (MMMT539) was examined by antibody drug conjugate cytotoxicity (ADC) assay. Human uterine cancer cells MMMT539 were seeded in triplicate on 96 well plate overnight and then treated with SB2 or SB5 and anti-mouse Fab-cleavable-Duocarmycin complex for ˜90 h. The presence of viable live cells per well was measured by total cellular ATP content in relative luminescence unit (RLU). Viability of control live cells (100%) was determined from average of 9 wells in terms of total cellular ATP (in RLU) containing the constant 15 nM Fab-CL-DMDM for each set of antibody/reagent. […] Staurosporine, a general protein kinase inhibitor, was used to induce apoptosis in 1% DMSO as a positive control for the assay.

[3] = target: T1, recombinant human SAS1B antigen; assay: Capture assay by sandwich ELISA; assay type: binding; settings: SB2 coupled to magnetic beads, SB5 coupled to HRP as detection agent, 96 well ELISA format
Excerpt: The antibodies were used to develop a capture assay by sandwich ELISA. The support was a magnetic bead (MB) coupled to SB2, SB3, SB4, or SB5 mAbs. The antigen was a recombinant human SAS1B antigen. Detection was accomplished with mAbs SB2, SB3, SB4, SB5 conjugated with HRP. A HRP substrate was used and TMB was used for quantitation.
The retention of HRP activity after conjugations to SASB1 SB2, SB3, SB4, SB5, and anti-CABYR monoclonal antibody 3A4 was examined. The assay method detected 0.2 femtomole of IgGs. Where SB2 is coupled to magnetic beads and SB5 coupled to HRP is used as a detection agent in a 96 well ELISA format 2.7 pmole/ml of rhSAS1B can be detected.

[4] = tested on: renal cell carcinoma cell line (M1); assay: Morphology of renal cell carcinoma cell line (M1) after 93 h of antibody drug treatment; assay type: cell-based; settings: 1 nM mAb with 15 nM Fab-DMDM
Method: The morphology of renal cell carcinoma cell line (M1) after 93 h of anti-EGFR antibody drug treatment was examined.

[5] = tested on: renal carcinoma cells; assay: ADC assay on renal carcinoma cells; assay type: cell-based; settings: 15 nM Fab-DMDM, 4 days
Method: The cytotoxic effect of anti-EGFR (AY13), anti-SAS1B (SB2) and anti-CABYR (3A4) monoclonal antibodies on renal carcinoma cells were tested by ADC assay. An average of 3 experiments in triplicate is reported.

[6] = tested on: PDAC cell line known as 366; assay: Live indirect immunofluorescence cell surface staining, 366; assay type: cell-based, human; settings: for Cells staining for cell surface SAS1B: 366, primary antibody 20 ug/mL; for Recognition of cell surface SAS1B: live 366 cells, primary antibodies 20 ug/mL
Method: (§1) Live MPanc96 cells (pancreatic ductal adenocarcinoma cell line) were incubated with different anti-SAS1B monoclonal antibodies (as well as DAPI stain) for nucleus localization. Cells were fixed and permeabilized after primary and secondary antibody incubation thus fluorescence staining observed represents surface localized SAS1B. Monoclonal antibodies SB4 and SB5 were used, as well as normal rabbit or mouse IgG's as a negative control. All primary antibodies were used at a concentration of 20 ug/mL.
(§2) The live indirect immunofluorescence protocol is as follows. The cells were dissociated with Acutase and plated on fibronectin coated coverslips. MPanc96 cells were allowed to grow 2-3 days and 366 cells were allowed to grow for 3-4 days. The cells were blocked (blocking 1 solution) with 5% NGS in media for 30 min at RT and then blocked with 5% NGS in chilled media+0.1% sodium azide (blocking 2 solution) for 30 min on ice. The primary antibody (SB4, SB5 or control) was added at 20 ug/mL in blocking 2 solution for 2 hours on ice at 4° C. The cells were washed 3× for 5 minutes each on ice. The secondary antibody (goat anti-Ms/Rb Alexa488 (1:500)) was added in blocking 2 solution for 1 hour in dark on ice at 4° C. The cells were washed 3× for 5 min each on ice and then were fixed with 4% PFA-PBS for 15 min in the dark at RT. The cells were washed 2× for 5 min each at RT and then stained with DAPI stain (1:1000) for 10 min at RT. The cells were washed 2× for 5 min each at RT and then were treated with prolong gold antifade. […] About 10-20% of the SB5 treated cells stained for SASB1.

[7] = tested on: MPanc96 cells (pancreatic ductal adenocarcinoma cell line); assay: Live indirect immunofluorescence cell surface staining, MPanc96; assay type: cell-based, human; settings: for Cells staining for cell surface SAS1B: MPanc96, primary antibody 20 ug/mL; for Immunoreaction with cell surface localized SAS1B: live MPanc96, primary antibodies 20 ug/mL
Method: as §1, §2

[8] = target: T2, mouse SAS1B; assay: Western blot of mouse SAS1B probed with anti-human SAS1B murine mAbs; assay type: binding; settings: Table 1
Excerpt: A western blot of human SAS1B and mouse SAS1B was probed with anti-human SAS1B murine monoclonal antibodies SB1, SB2, SB3, SB4, SB5, SB6, and SB7.

| Molecule | Cell killing and inhibition of cell proliferation (morphology) [1] | Cancer cells killed [2] | rhSAS1B that can be detected [3] | Cell killing and inhibition of cell proliferation (morphology) [4] | Cytotoxic effect [5] | Cells staining for cell surface SAS1B [6] | Recognition of cell surface SAS1B [6] | Cells staining for cell surface SAS1B [7] | Immunoreaction with cell surface localized SAS1B [7] | Specifically binds mouse and human SAS1B [8] |
| --- | --- | --- | --- | --- | --- | --- | --- | --- | --- | --- |
| B1 | clear cell killing and inhibition of cell proliferation | 87% | 2.7 pmol/mL | a large number of rounded dead cells | cytotoxic effect at 0.01, 0.1 nM and higher concentrations | – | – | – | – | – |
| B2 | clear cell killing and inhibition of cell proliferation | 75% | 2.7 pmol/mL | clear cell killing and inhibition of cell proliferation properties | – | 10-20% | recognize cell surface SAS1B in pancreatic cancer cell lines | 10-20% | immunoreact with cell surface localized SAS1B | – |
| B3 | – | – | – | – | – | 65-80% | recognize cell surface SAS1B in pancreatic cancer cell lines | 65-80% | immunoreact with cell surface localized SAS1B | – |
| B4 | – | – | – | – | – | – | – | – | – | Yes |
